From the DeepSol protein solubility set

Assay: soluble on expression in E. coli; label from the status in PepcDB or PDB records

Sequence | soluble on expression in E. coli
MGRLSGKTILVTGAASGIGRAALDLFAREGASLVAVDREERLLAEAVAALEAEAIAVVADVSDPKAVEAVFAEALEEFGRLHGVAHFAGVAHSALSWNLPLEAWEKVLRVNLTGSFLVARKAGEVLEEGGSLVLTGSVAGLGAFGLAHYAAGKLGVVGLARTLALELARKGVRVNVLLPGLIQTPMTAGLPPWAWEQEVGASPLGRAGRPEEVAQAALFLLSEESAYITGQALYVDGGRSIVGPPGLPPGFGPKGGERHAHVL | soluble
MIQQAQFNVQMAEEDRWLTQYPNMEMIVNNKGPKPIFPELNFNITGLEEKSRYVVLLSIQKFDNIRYGFKNGKWGPSKVRHATKKEQEIKYFLHPDGTKLGEELMKETIKFDTVRITNHKKFMDKDNVFFVETMHKYVPVLTVKNITNVESANHSMRMEVAQFFPVTVYNQESIGNWKSKFHKNATFENRLDGGNKRKNTNSREEPSSKRSKNETEIAVLDILQVASQSENYNESTNSGRLQNEISSSIHQFPSTSYQNQYPHAYPTVNTPPIYAQQFPAPFDEKQNQFYPKTDENLAPNCAQDASSLPNFAMNQKASFANQYPYHPYYHQYSQLDHGSPYQYMNNSINSDSSFQSSFSTENSYFDDNGNPIHYPYYPYK | not soluble
GEHTTCGCGEHCGCNPCACGREGTPSGRANRRANCSCGAACNCASCGSATAPG | soluble
MAGFAVNLKVVLNSDAVFGTACKRGGGAPETCLLEDMGLEREDIEPFGYEKDKDREILVWHTKTSTPNIVKSNKNSTKKAPPPDTFGYFVEA | not soluble
MAVIVRKWFGLGRLPADLRCQVEAEGLIYLAEYVAVTRRFTGVIPGLRASHSIASYVGALAFTEQRVLGTLSMVPKLAGRVVDARWDGPQAGAATAEISPTGLQLDLDVADVDPKFSGQLALHFKATIGEDVLSRLPRRSLAFDVPAEYVNLAVGVTYSP | soluble
MSFNDLYKASIYTMLGSIYAPSGGVIAAPTTSLPEVEGGKRNWDYRFAWVRDSSIIAEALLEAGSIVEARRIINFLLSLINFSSKPFYYPLYTIEGTIPPPERELRWLSGYKNSKPVRIGNGASSQIQLDIEGFFISALYKYVKMTNDQVFLKDVFSKVKYIGDWISENWSLKDSGIWEDRGSPQHYTHSKIMMWIALDKIGKLANLIGYADIWAKEREKLRNWIFTNCVKNNYFIRYCGNTDDVDSSLLSAPLYGFIEVSDSTFINTLTKIENDLKTDVFVKRYKTDFMGEAKHPFLLTTVWLARVYMRLGKIDSAIEILNKINKVSRELHLVGEHVDVEKGEFTGNFPQIFVHAQLVIAIKELNDTLTDKNIILEHHHHHH | not soluble
MCSGYFELKQMFPIIRKIFVEKSNCSSNTHHSKRSIGETAGLKTGERIVGVNGQLIYPTNTHKEVVPLMKQNAMKTTLLEVH | not soluble
MLRGLRIIAENKIGVLRDLTTIIAEEGGNITFAQTFLIKHGEHEGKALIYFEIEGGDFEKILERVKTFDYIIEIEEEESFERVFGKRVIILGGGALVSQVAIGAISEADRHNLRGERISVDTMPVVGEEEIAEAVKAVSRLHRAEVLVLAGGIMGGKITEEVKKLRKSGIRVISLSMFGSVPDVADVVISDPVMAGTLAVMHISEKAKFDLDRVKGRRI | soluble
MAKHGADEPSSRSGSPDREGRASEDRSLLHQRLAVRELIDTEVSYLHMLQLCASDIRSRLQQLPQGDLDVLFSNIDDIIKVNSRFLHDLQETASKEEEQVQLVGNIFLEFQEELEQVYKVYCASYDQALLLVDTYRKEPELQRHIQGIVEAVVPQAGSSGLSFLLVIPLQRITRYPLLLQKILENTVPDASAYPVLQRAVSALQDVNTNINEYKMRKEVASKYTKVEQLTLRERLARINTHTLSKKTTRLSQLLKQEAGLIPRTEDKEFDDLEERFQWVSLCVTELKNNVAAYLDNLQGAVGFYHWLTPTQMIDGLALGESTPGPLIMVVAFVGFLAAYNHSLLGAEHQFIAVLQDVRDHRITQVRAAEILNLSTRQITRLLQKLNQDGVSGLAHASRGQPGHHRHDELLKSKCLSIISEHLLGFGPTLAHEKLSSIFDLNIPVETVRRWMMANDLWIPRSKRLKRPYQPRYNRDCFGELIQIDGSYHDWFEGRAAKCCLLVYIDDATGKLLHLRFCEAETTFDYMLSTRAYIEQYGKPLAFYSDKHSVFRVNQKSRKDSQITQFGRILNELNIDIIFANSPQAKGRVERANRTLQDRLIKEMRLEGISSIAEANAWLPCFIEHFNQKFAKCARNSKNLHRSLTESDAELEDIFTWQEPRKVTKNLTITYDKCIYLLEPTELNHKLVGQYISFLEYPDGTVALMHEGRKINYSVFNKLAGLQQNEVVENKRLGSVLAHIQQQHEELEKQNKRSRLKKSMPSRKAQKAVIEQRKLNPVLDSCG | soluble
MSLKSYILLIKCKTDTTIRTKSKKFLIRKGVYAYVGSCGRSCGRRVSRHFNKEKSNYHWHIDYLTKACEPIGVFVMNHVGEKELALLFSKNNAFIEEFGSSDDKDAKSHLFIVNDLQELCSTVCDKSREREGHHHHHH | soluble
MAHHHHHHMPTPRETVVAFLTQACCGTIVALHRMGGMEVMLYKEQLVVMLTRYFNSCWNSLLSGDDPYVVESFNMMKHDNPGCVMRYLFSVGTSVLPDEPPQEIARYSPEDTDDLEAARVTISETLQQLLAERIAVDPFQHSCEGLSLSAERTAWSEKGCPPQNFFEIS | soluble
MGSDKIHHHHHHMITHIRVASQQLEQPRFESPKELVSWMGAIQAQEYEMAKWAIGIRLRSSSLEKVNEALYKGDILRTHVMRPTWHFVAAEDIRWMLMLSSERIKAAVMSYAKGHFGKIEKTLFTRYLDQIGKILEGYKSLTKQEVTTELQKSGILPTIDHVNLFLTWGEVEGIVCSGIDKGKKTTYALLDERVPPTRELCREEALARLASRYFQSHSPAQLQDFVWWSGLTATECRLAINLIKTELITETFDSREYFIHQSWKGKNESKPVLRLLPAFDEYLISYKNRTDVLPLEHHPKAFNRFGTFYPVILYNGKIIGNWSRSIKKNTIQIEMDFFEKKPRIPVKLIQQAEAQIDAFYRGLSHRPALQCREK | not soluble
MGSDKIHHHHHHMTAISREVPRTPHDLSLYLTRLGLTAPDLGSAMQPVLDVLVSRTAAVGAGYFQLRDSTLTYQARAASGDLPQGPLMEALLAHGLPPELPLVQALEAADGALFFEDTRLDPQAAGFADLGVLALTAAPVHNQSGRLVGALLSHVFAPHPWSAEERQLVSTVTGLLTLLAARLDAEERERAAHESALRALGLMLEARDTETQGHTDRVTALALRLGRALGLSDTELRDLRWGAYLHDIGKIAIPDAILHCPGTLDLAAWARMQEHVNEGTRLAAQLPFLPRAALDVIACHHECWDGSGYPRGLAGEAIPRHARIFAACDVYDALVSARPYKRAWTHAEATAYLEQRSGHQFDPVIVRALLRVLEDEDSAAANA | not soluble
MKHLLLASLLGSAMAMSSLVMAADTDLKTLEAAAKAEGAVNSLGMPDDWANWGGIWKDLETKYGLKHMDTDMSSAQEIAKFDAEKDNASGDIGDVGAAFGPIAVAKGVTQPYKPTTWEQIPDWAKDKDGHWALAYTGTIAFIVNKNLLHGSEIPKSWADLKTGKYKVSIGDVSTAAQATNGVLAAAIAMKGDESNIEPGLALFTDLAKQKRLSLANPTIQTIEKGEIEVGVVWDFNGLNYKAKMAKPDDYVVLIPSDGSVVSGYTTIINKYAKHPNAAKLAREYTFSDAGQINLAKGNARPIRVEHIKLPDDVKAQLLPHEQYLNAKPIKDADAWEKTSKALPQKWNEQVIIEMN | not soluble
KVITRGEATRLINKEDAVVVDLRQRDDFRKGHIAGAINLLPSDIKANNVGELEKHKSQPIIVVDGSGMQAQEPASALNKAGFEKVFVLKEGIAGWSGENLPLVRG | soluble
MSLSRAAIVDQLKEIVGADRVITDETVLKKNSIDRFRKFPDIHGIYTLPIPAAVVKLGSTEQVSRVLNFMNAHKINGVPRTGASATEGGLETVVENSVVLDGSAMNQIINIDIENMQATAQCGVPLEVLENALREKGYTTGHSPQSKPLAQMGGLVATRSIGQFSTLYGAIEDMVVGLEAVLADGTVTRIKNVPRRAAGPDIRHIIIATKVHCAISLK | soluble
MVLPKKEFVLSHTFTDVSKMEKDISVFSPGEEHFNVSWNMSISCEGDHLGVFLHCHKSRGKETMWTIDTEHQFTLKTSSGKAYREDDNFNFQFSNAHSYGNGTTEFISWNKLIKDYLIDDVITVEAAVKIIKTTGISKKALKGFEKSNEEFSDVVLAVGDKEFFVLKQFLAYHSSYFKSLLLGKFAESDQKEVTLQDIDPTDFQNLLEVLYGEPAIDDETIDGILHLAHMYDMSVPLRKCEEFLINESEKSMKDQLKIAKQYQLEKLKKACLLKINTVDEIKAAVAGKLSDMDPTVVAALF | not soluble
MYHLKKILEVKQVNKTYSMDGNANYHVLKNIDLEVYEGEFVSVMGPSGSGKSTLLYNISGMDQMSSGSVKIDSKELSCMKEEELAKLRLTEIGFIFQQSNLLRNLNLFDNIILSAYLAKCESKKIVNKRALELMENMGISDIASHYITEASGGQLQRVSICRALINNPNIIFADEPTGALNLKSTEEVMQILLNINRDGTTIMLVTHDVKVAAKTERILFMADGEIVSEIQLGKLRNDDLKAREEKLLNWLAVLGF | not soluble
MELPSMNVPFSRYCWVTLTIQDHLPIDSFRSLNLSITNDNYSGGDLKAYPADFNGILAGNWFTFSPVTYSMKLQYNYTNGAEEATRVRVYCKSPLPYWLPYCG | not soluble
MGHHHHHHSHMEVVDPQQLGMFTEGELMSVGMDTFIHRIDSTEVIYQPRRKRAKLIGKYLMGDLLGEGSYGKVKEVLDSETLCRRAVKILKKKKLRRIPNGEANVKKEIQLLRRLRHKNVIQLVDVLYNEEKQKMYMVMEYCVCGMQEMLDSVPEKRFPVCQAHGYFCQLIDGLEYLHSQGIVHKDIKPG | not soluble
LYAPLVSLMITVPVFGQHEYTHALVADLEREGADYLIVDNRGDYPRIGTERVSTPGENLGWAGGSELGFRLAFAEGYSHAMTLNNDTRVSKGFVAALLDSRLPADAGMVGPMFDVGFPFAVADEKPDAESYVPRARYRKVPAVEGTALVMSRDCWDAVGGMDLSTFGRYGWGLDLDLALRARKSGYGLYTTEMAYINHFGRKTANTHFGGHRYHWGASAAMIRGLRRTHGWPAAMGILREMGMAHHRKWHKSFPLTCPASC | not soluble
MEHFHGNRWDQLRAVEADILCPPPADPFQIFPSGWTRASELSEKGWRELLDRRRSQSPPPREPSPDVRRAIRRTPPPRVNRVAPIRLPERRPLRQLNANDARRPAQDAANRINQENMRAGNIDNGQPRRRALSPTQLPGVRAIPKDFNRFFRGLLTPGEFFAKSQTRYLGPFDEMPTEDTLPAADEYIILQRMGRLPDSGKSIFRQVGNLST | not soluble
MAHHHHHHMMNTSLLGQDVDEIQSAVDRWYHQSSSNLQASHAAFTAQLRQLQERLGLDPGAPTLSAHVDAMITPPRHMYLSDDNNSGSPPMASPPISRGQLNYDHLLDEVINKGASMPPFNPEEEAERRRRPNAESVRAPSTPPEDCNGPCQVLVEFKRKRVLQYESPYYVAPGEHVVVGGDRGEDIGLVTHSWRDAEAHQLGENRDKGVGKVLRVASVLEVTQLQGVQTELETRAVEVAQEKVQESGLPMRIVDAEYQFDRRKLTFYYQSMHRLDFRTLVRDLYKTFRARIWMEPDTSS | soluble
MYTKNFSNSRMEVKGNNGCSAPIIRKPFKHIVLTVPSSDLDNFNTVFYVQPQYINQALHLANAFQGAIDPLNLNFNFEKALQIANGIPNSAIVKTLNQSVIQQTVEISVMVEQLKKIIQEVLGLVINSTSFWNSVEATIKGTFTNLDTQIDEAWIFWHSLSAHNTSYYYNILFSIQNEDTGAVMAVLPLAFEVSVDVEKQKVLFFTIKDSARYEVKMKALTLVQALHSSNAPIVDIFNVNNYNLYHSNHKIIQNLNLSN | soluble
